From patent publication US20140080757A1 (ZEALAND PHARMA A S, published 2014) come the findings set out here.

What all share (test): cell-based or functional assay
In experiment [1] the target is endogenous glucagon receptor of primary rat hepatocytes (rat, UniProt P30082 27-485).
Experiment [2] addresses human glucagon-like peptide 1 receptor (GLP-1R) (human, UniProt P43220 24-463).
Experiment [3] has as its target human glucagon receptor (Glucagon-R) (human, UniProt P47871 26-477).
Experiment [4] addresses T1, endogenous GLP-1 receptor of a murine insulinoma cell line (murine, UniProt O35659 22-463).
T1 sequence (looked up): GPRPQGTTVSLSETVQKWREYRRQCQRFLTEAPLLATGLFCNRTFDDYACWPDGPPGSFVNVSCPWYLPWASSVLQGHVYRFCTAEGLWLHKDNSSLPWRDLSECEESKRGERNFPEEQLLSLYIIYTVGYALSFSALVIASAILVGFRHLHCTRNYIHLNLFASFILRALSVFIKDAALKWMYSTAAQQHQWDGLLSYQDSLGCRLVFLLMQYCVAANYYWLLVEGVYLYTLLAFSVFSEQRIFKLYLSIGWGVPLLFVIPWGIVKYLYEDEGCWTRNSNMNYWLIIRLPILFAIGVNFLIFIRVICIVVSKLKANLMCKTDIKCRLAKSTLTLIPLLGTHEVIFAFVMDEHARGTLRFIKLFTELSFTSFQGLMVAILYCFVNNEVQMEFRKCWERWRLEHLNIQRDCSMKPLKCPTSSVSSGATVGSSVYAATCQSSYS

Numbered stars: 1 amine (or outer) side, 2 acyl side, 3 side chain; on linkers, the order of the positions; unused ones are H or OH. Side chains are listed from the residue outwards. * marks the point of attachment. γGlu = O=C(O)[C@H](CCC(=O)[*:2])N[*:1]; Palmitoyl = CCCCCCCCCCCCCCCC(=O)*

endogenous glucagon receptor of primary rat hepatocytes, sequence (P30082 27-485): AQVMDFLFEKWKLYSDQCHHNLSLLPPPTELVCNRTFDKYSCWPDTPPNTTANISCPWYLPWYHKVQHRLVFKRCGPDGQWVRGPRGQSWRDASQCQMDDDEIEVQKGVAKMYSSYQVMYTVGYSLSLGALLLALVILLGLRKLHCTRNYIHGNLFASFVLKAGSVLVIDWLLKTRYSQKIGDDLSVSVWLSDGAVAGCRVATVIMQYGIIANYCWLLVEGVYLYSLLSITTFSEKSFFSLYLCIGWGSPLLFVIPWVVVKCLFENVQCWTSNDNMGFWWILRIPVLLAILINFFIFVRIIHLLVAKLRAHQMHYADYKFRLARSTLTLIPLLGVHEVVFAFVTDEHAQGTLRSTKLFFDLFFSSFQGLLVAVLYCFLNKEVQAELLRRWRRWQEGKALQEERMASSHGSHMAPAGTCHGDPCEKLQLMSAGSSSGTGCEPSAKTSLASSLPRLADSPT
human glucagon receptor (Glucagon-R), sequence (P47871 26-477): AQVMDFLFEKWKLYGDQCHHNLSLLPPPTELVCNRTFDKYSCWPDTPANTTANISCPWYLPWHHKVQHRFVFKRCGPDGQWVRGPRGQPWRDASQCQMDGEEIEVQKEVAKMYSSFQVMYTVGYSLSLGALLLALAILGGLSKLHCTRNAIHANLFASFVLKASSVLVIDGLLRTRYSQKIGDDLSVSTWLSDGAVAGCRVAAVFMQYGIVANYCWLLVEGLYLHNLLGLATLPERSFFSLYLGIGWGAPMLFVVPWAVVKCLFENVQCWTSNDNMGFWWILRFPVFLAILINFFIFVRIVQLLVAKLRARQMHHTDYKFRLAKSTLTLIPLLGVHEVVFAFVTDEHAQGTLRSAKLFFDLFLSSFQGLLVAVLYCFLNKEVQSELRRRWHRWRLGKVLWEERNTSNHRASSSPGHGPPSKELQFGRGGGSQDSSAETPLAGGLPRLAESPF

B1: Compound 7 (peptide)
peptide: H-HSQGTFTSDYSKYLDSK([γGlu-Palmitoyl])AAEDFVEWLLRA-NH2
SMILES: CCCCCCCCCCCCCCCC(=O)N[C@@H](CCC(=O)NCCCC[C@H](NC(=O)[C@H](CO)NC(=O)[C@H](CC(=O)O)NC(=O)[C@H](CC(C)C)NC(=O)[C@H](Cc1ccc(O)cc1)NC(=O)[C@H](CCCCN)NC(=O)[C@H](CO)NC(=O)[C@H](Cc1ccc(O)cc1)NC(=O)[C@H](CC(=O)O)NC(=O)[C@H](CO)NC(=O)[C@@H](NC(=O)[C@H](Cc1ccccc1)NC(=O)[C@@H](NC(=O)CNC(=O)[C@H](CCC(N)=O)NC(=O)[C@H](CO)NC(=O)[C@@H](N)Cc1c[nH]cn1)[C@@H](C)O)[C@@H](C)O)C(=O)N[C@@H](C)C(=O)N[C@@H](C)C(=O)N[C@@H](CCC(=O)O)C(=O)N[C@@H](CC(=O)O)C(=O)N[C@@H](Cc1ccccc1)C(=O)N[C@H](C(=O)N[C@@H](CCC(=O)O)C(=O)N[C@@H](Cc1c[nH]c2ccccc12)C(=O)N[C@@H](CC(C)C)C(=O)N[C@@H](CC(C)C)C(=O)N[C@@H](CCCNC(=N)N)C(=O)N[C@@H](C)C(N)=O)C(C)C)C(=O)O
Turning to B1, the “EC50 GLP-1R Rat hepat. [nM] (inhibition of glycogen synthesis)” value in experiment [1] turned out to be 1.92 nM. Further, in experiment [2], the “EC50 hGLP-1R CHO-K1 [nM] (cAMP)” value came to 0.27 nM and the “Ratio GLP-1/Glucagon (EC50 hGLP-1R / EC50 hGCGR)” value amounted to 0.6 ratio. In addition, the “EC50 hGCGR CHO-K1 [nM] (cAMP)” value in experiment [3] was 0.45 nM. For the same molecule, in experiment [4], the “EC50 GLP-1R (murine insulinoma cells) [nM] (cAMP)” value (“EC50 GLP-1R … (cAMP)” below) worked out at 0.84 nM.

B2: Compound 6 (peptide)
peptide: H-HSQGTFTSDYSRYLDSK([γGlu-Palmitoyl])AAEDFVEWLLRA-NH2
SMILES: CCCCCCCCCCCCCCCC(=O)N[C@@H](CCC(=O)NCCCC[C@H](NC(=O)[C@H](CO)NC(=O)[C@H](CC(=O)O)NC(=O)[C@H](CC(C)C)NC(=O)[C@H](Cc1ccc(O)cc1)NC(=O)[C@H](CCCNC(=N)N)NC(=O)[C@H](CO)NC(=O)[C@H](Cc1ccc(O)cc1)NC(=O)[C@H](CC(=O)O)NC(=O)[C@H](CO)NC(=O)[C@@H](NC(=O)[C@H](Cc1ccccc1)NC(=O)[C@@H](NC(=O)CNC(=O)[C@H](CCC(N)=O)NC(=O)[C@H](CO)NC(=O)[C@@H](N)Cc1c[nH]cn1)[C@@H](C)O)[C@@H](C)O)C(=O)N[C@@H](C)C(=O)N[C@@H](C)C(=O)N[C@@H](CCC(=O)O)C(=O)N[C@@H](CC(=O)O)C(=O)N[C@@H](Cc1ccccc1)C(=O)N[C@H](C(=O)N[C@@H](CCC(=O)O)C(=O)N[C@@H](Cc1c[nH]c2ccccc12)C(=O)N[C@@H](CC(C)C)C(=O)N[C@@H](CC(C)C)C(=O)N[C@@H](CCCNC(=N)N)C(=O)N[C@@H](C)C(N)=O)C(C)C)C(=O)O
As for B2, the “EC50 GLP-1R Rat hepat. [nM] (inhibition of glycogen synthesis)” value in experiment [1] was determined as 2.87 nM. In experiment [2], the “EC50 hGLP-1R CHO-K1 [nM] (cAMP)” value was found to be 0.35 nM and the “Ratio GLP-1/Glucagon (EC50 hGLP-1R / EC50 hGCGR)” value stood at 0.76 ratio. The “EC50 hGCGR CHO-K1 [nM] (cAMP)” value in experiment [3] was determined as 0.46 nM. Besides, the “EC50 GLP-1R … (cAMP)” value in experiment [4] amounted to 1.14 nM.

B3: Compound 9 (peptide)
peptide: H-HSQGTFTSDYSKYLDSK([γGlu-Palmitoyl])AAHDFVEWLLR-OH
SMILES: CCCCCCCCCCCCCCCC(=O)N[C@@H](CCC(=O)NCCCC[C@H](NC(=O)[C@H](CO)NC(=O)[C@H](CC(=O)O)NC(=O)[C@H](CC(C)C)NC(=O)[C@H](Cc1ccc(O)cc1)NC(=O)[C@H](CCCCN)NC(=O)[C@H](CO)NC(=O)[C@H](Cc1ccc(O)cc1)NC(=O)[C@H](CC(=O)O)NC(=O)[C@H](CO)NC(=O)[C@@H](NC(=O)[C@H](Cc1ccccc1)NC(=O)[C@@H](NC(=O)CNC(=O)[C@H](CCC(N)=O)NC(=O)[C@H](CO)NC(=O)[C@@H](N)Cc1c[nH]cn1)[C@@H](C)O)[C@@H](C)O)C(=O)N[C@@H](C)C(=O)N[C@@H](C)C(=O)N[C@@H](Cc1c[nH]cn1)C(=O)N[C@@H](CC(=O)O)C(=O)N[C@@H](Cc1ccccc1)C(=O)N[C@H](C(=O)N[C@@H](CCC(=O)O)C(=O)N[C@@H](Cc1c[nH]c2ccccc12)C(=O)N[C@@H](CC(C)C)C(=O)N[C@@H](CC(C)C)C(=O)N[C@@H](CCCNC(=N)N)C(=O)O)C(C)C)C(=O)O
On to B3, for which the “EC50 GLP-1R Rat hepat. [nM] (inhibition of glycogen synthesis)” value in experiment [1] turned out to be 0.37 nM. Also, in experiment [2], the “EC50 hGLP-1R CHO-K1 [nM] (cAMP)” value came to 0.35 nM and the “Ratio GLP-1/Glucagon (EC50 hGLP-1R / EC50 hGCGR)” value amounted to 1.4 ratio. Further, in experiment [3], the “EC50 hGCGR CHO-K1 [nM] (cAMP)” value was 0.25 nM. Also, in experiment [4], the “EC50 GLP-1R … (cAMP)” value amounted to 1.02 nM.

B4: Compound 8 (peptide)
peptide: H-HSQGTFTSDYSKYLDSK([γGlu-Palmitoyl])AAHDFVEWLLS-NH2
SMILES: CCCCCCCCCCCCCCCC(=O)N[C@@H](CCC(=O)NCCCC[C@H](NC(=O)[C@H](CO)NC(=O)[C@H](CC(=O)O)NC(=O)[C@H](CC(C)C)NC(=O)[C@H](Cc1ccc(O)cc1)NC(=O)[C@H](CCCCN)NC(=O)[C@H](CO)NC(=O)[C@H](Cc1ccc(O)cc1)NC(=O)[C@H](CC(=O)O)NC(=O)[C@H](CO)NC(=O)[C@@H](NC(=O)[C@H](Cc1ccccc1)NC(=O)[C@@H](NC(=O)CNC(=O)[C@H](CCC(N)=O)NC(=O)[C@H](CO)NC(=O)[C@@H](N)Cc1c[nH]cn1)[C@@H](C)O)[C@@H](C)O)C(=O)N[C@@H](C)C(=O)N[C@@H](C)C(=O)N[C@@H](Cc1c[nH]cn1)C(=O)N[C@@H](CC(=O)O)C(=O)N[C@@H](Cc1ccccc1)C(=O)N[C@H](C(=O)N[C@@H](CCC(=O)O)C(=O)N[C@@H](Cc1c[nH]c2ccccc12)C(=O)N[C@@H](CC(C)C)C(=O)N[C@@H](CC(C)C)C(=O)N[C@@H](CO)C(N)=O)C(C)C)C(=O)O
Consider B4, for which the “EC50 GLP-1R Rat hepat. [nM] (inhibition of glycogen synthesis)” value in experiment [1] was 1.1 nM. Further, in experiment [2], the “EC50 hGLP-1R CHO-K1 [nM] (cAMP)” value amounted to 0.41 nM and the “Ratio GLP-1/Glucagon (EC50 hGLP-1R / EC50 hGCGR)” value is 1.41 ratio. The “EC50 hGCGR CHO-K1 [nM] (cAMP)” value in experiment [3] is 0.29 nM. The “EC50 GLP-1R … (cAMP)” value in experiment [4] stood at 0.95 nM.

B5: Compound 10 (peptide)
peptide: H-HSQGTFTSDYSKYLDEK([γGlu-Palmitoyl])AAHEFVEWLESA-NH2
SMILES: CCCCCCCCCCCCCCCC(=O)N[C@@H](CCC(=O)NCCCC[C@H](NC(=O)[C@H](CCC(=O)O)NC(=O)[C@H](CC(=O)O)NC(=O)[C@H](CC(C)C)NC(=O)[C@H](Cc1ccc(O)cc1)NC(=O)[C@H](CCCCN)NC(=O)[C@H](CO)NC(=O)[C@H](Cc1ccc(O)cc1)NC(=O)[C@H](CC(=O)O)NC(=O)[C@H](CO)NC(=O)[C@@H](NC(=O)[C@H](Cc1ccccc1)NC(=O)[C@@H](NC(=O)CNC(=O)[C@H](CCC(N)=O)NC(=O)[C@H](CO)NC(=O)[C@@H](N)Cc1c[nH]cn1)[C@@H](C)O)[C@@H](C)O)C(=O)N[C@@H](C)C(=O)N[C@@H](C)C(=O)N[C@@H](Cc1c[nH]cn1)C(=O)N[C@@H](CCC(=O)O)C(=O)N[C@@H](Cc1ccccc1)C(=O)N[C@H](C(=O)N[C@@H](CCC(=O)O)C(=O)N[C@@H](Cc1c[nH]c2ccccc12)C(=O)N[C@@H](CC(C)C)C(=O)N[C@@H](CCC(=O)O)C(=O)N[C@@H](CO)C(=O)N[C@@H](C)C(N)=O)C(C)C)C(=O)O
Turning to B5, in experiment [1], the “EC50 GLP-1R Rat hepat. [nM] (inhibition of glycogen synthesis)” value was 0.04 nM. In experiment [2], the “EC50 hGLP-1R CHO-K1 [nM] (cAMP)” value was 0.23 nM and the “Ratio GLP-1/Glucagon (EC50 hGLP-1R / EC50 hGCGR)” value came to 1 ratio. For the same molecule, the “EC50 hGCGR CHO-K1 [nM] (cAMP)” value in experiment [3] worked out at 0.23 nM. Also, the “EC50 GLP-1R … (cAMP)” value in experiment [4] turned out to be 0.33 nM.
